Test results published in patent publication US20210213134A1, “THIOL-BASED MULTIVALENT DRUG DELIVERY COMPOSITIONS” (ORPRO THERAPEUTICS, INC., priority 2018, published 2021).
Read-outs that look alike come from different tables or passages of the source.

B1: reduced (active) C35STRX (enzyme)
chain: MVKQIESKTAFQEALDAAGDKLVVVDFSATWCGPSKMIKPFFHSLSEKYSNVIFLEVDVDDCQDVASECEVKCMPTFQFFKKGQKVGEFSGANKEKLEATINELV
modifications: active site Cys32 in the reduced state
B2: Azido-C35STRX (C35STRX with azido-PEG linkers on Lys residues, reduced) (enzyme)
chain: B1 chain
modifications: azido-PEG chains (NHS-PEG4-Azide) on Lys residues, average of 11 per molecule; active site Cys reduced with DTT

Columns and labels:
[1] = biological target: insulin (fully disulfide-bonded heterodimeric insulin); test: cell-based or functional assay
[2] = biological target: insulin (fully disulfide-bonded heterodimeric insulin); test: cell-based or functional assay; remark: listed apart in the source

Binder	% reduction C35STRX (insulin heterodimer peak, RP-HPLC), 0 min [1] [%]	% reduction C35STRX (insulin heterodimer peak, RP-HPLC), 90 min [1] [%]	column 'C35STRX' (taken as insulin heterodimer peak area, RP-HPLC), 0 min [1]	column 'C35STRX' (taken as insulin heterodimer peak area, RP-HPLC), 90 min [1]	% reduction C35STRX (insulin heterodimer peak, RP-HPLC), 90 min [2] [%]	column 'C35STRX' (taken as insulin heterodimer peak area, RP-HPLC), 0 min [2]	column 'C35STRX' (taken as insulin heterodimer peak area, RP-HPLC), 90 min [2]	% reduction Azido-C35STRX (insulin heterodimer peak, RP-HPLC), 90 min [1] [%]	attenuation of the ability to reduce insulin disulfides vs. unconjugated monocysteinic thioredoxin [1] [%]	column 'Azido-C35STRX' (taken as insulin heterodimer peak area, RP-HPLC), 0 min [1]	column 'Azido-C35STRX' (taken as insulin heterodimer peak area, RP-HPLC), 90 min [1]	% reduction Azido-C35STRX (insulin heterodimer peak, RP-HPLC), 0 min [2] [%]	% reduction Azido-C35STRX (insulin heterodimer peak, RP-HPLC), 90 min [2] [%]	column 'Azido-C35STRX' (taken as insulin heterodimer peak area, RP-HPLC), 0 min [2]	column 'Azido-C35STRX' (taken as insulin heterodimer peak area, RP-HPLC), 90 min [2]
B1	0	99.4	8520	50.2	97.7	10600	243								
B2								32.7	70	8960	6030	0	33.1	10200	6840
